Test results: publication PMC4346194

Assays:
[1] = target: GST-tagged FL-importin α1 (mouse) (UniProt P52293); assay: pull-down
[2] = target: GST-tagged FL-importin α7 (human) (UniProt O60684); assay: pull-down

“MBP-tagged PB2-NLD-K718A (from UniProt P31345 678-759) (domain or fragment)” was tested, and the percent of importin α bound to cargo [1] was 20% and the percent of importin α bound to cargo [2] was 43%.
